Measurements published in PMC6399291.

Experiments:
14-3-3β = 14-3-3β (UniProt P31946); assay: GFP-14-3-3β IP, anti-myc blot; conditions: reference: wild type; sites S351,S377
CDK4 [1] = target: CDK4 (UniProt P11802); assay: reciprocal co-IP, anti-GFP or anti-CDK4; conditions: reference: wild type; sites S351,S377
CDK4 [2] = target: CDK4 (UniProt P11802); assay: glutathione-bead pull-down from co-transfected cells, anti-Flag blot; conditions: sites S351,S377

UniProt P11802, sequence (P11802 whole entry, looked up): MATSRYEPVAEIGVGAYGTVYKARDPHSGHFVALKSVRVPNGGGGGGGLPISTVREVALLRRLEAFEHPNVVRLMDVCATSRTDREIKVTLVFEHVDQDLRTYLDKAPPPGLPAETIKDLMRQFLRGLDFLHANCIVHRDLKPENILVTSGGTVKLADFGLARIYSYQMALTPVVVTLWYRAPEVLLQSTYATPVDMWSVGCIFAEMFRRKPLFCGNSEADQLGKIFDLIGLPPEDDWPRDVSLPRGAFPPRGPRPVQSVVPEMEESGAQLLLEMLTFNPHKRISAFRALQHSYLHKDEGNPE
UniProt P31946, sequence (P31946 whole entry, looked up): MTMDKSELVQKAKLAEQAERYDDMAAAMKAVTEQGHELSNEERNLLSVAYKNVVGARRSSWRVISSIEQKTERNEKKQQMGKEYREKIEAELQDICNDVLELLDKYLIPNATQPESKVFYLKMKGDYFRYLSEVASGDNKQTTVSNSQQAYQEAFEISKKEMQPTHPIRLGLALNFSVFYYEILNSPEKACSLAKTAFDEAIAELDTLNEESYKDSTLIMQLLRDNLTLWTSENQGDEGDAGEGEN

For “PIKE-A (from UniProt Q99490-2) S351/377A (SA)”, which “binding against the reference” value (14-3-3β) is on record?
Its value is “weaker”.

How did the “binding against the reference” value (CDK4 [1]) turn out when PIKE-A (from UniProt Q99490-2) SA was run?
Its value is “weaker”.

Which “binding against the reference” value (CDK4 [2]; reference: wild type + myc-AMPKα T172A) does the source give for “PIKE-A (from UniProt Q99490-2) SA + myc-AMPKα T172A” here?
Its value is “weaker”.

How did the “binding against the reference” value (CDK4 [2]; reference: wild type + myc-AMPKα T172D) turn out when “PIKE-A (from UniProt Q99490-2) SA + myc-AMPKα T172D” was run?
The value was “weaker”.
